Experimental data reported in article PMC5302901.

Target: Grb2 (UniProt Q07883)
Assay: IP of Grb2, blot for CD22
Settings: reference: CD22-WT; sites Y773,Y783,Y828,Y843,Y863

- binding against the reference: lost
Substance: CD22 (from UniProt P35329) F1/2/4/5/6
